# Results: publication PMC3025530 (The Biochemical journal, 2010)
# T1: ADAM12-S (shorter secreted form of ADAM12), full-length (human, UniProt O43184-2 29-707)
# T1 sequence (looked up): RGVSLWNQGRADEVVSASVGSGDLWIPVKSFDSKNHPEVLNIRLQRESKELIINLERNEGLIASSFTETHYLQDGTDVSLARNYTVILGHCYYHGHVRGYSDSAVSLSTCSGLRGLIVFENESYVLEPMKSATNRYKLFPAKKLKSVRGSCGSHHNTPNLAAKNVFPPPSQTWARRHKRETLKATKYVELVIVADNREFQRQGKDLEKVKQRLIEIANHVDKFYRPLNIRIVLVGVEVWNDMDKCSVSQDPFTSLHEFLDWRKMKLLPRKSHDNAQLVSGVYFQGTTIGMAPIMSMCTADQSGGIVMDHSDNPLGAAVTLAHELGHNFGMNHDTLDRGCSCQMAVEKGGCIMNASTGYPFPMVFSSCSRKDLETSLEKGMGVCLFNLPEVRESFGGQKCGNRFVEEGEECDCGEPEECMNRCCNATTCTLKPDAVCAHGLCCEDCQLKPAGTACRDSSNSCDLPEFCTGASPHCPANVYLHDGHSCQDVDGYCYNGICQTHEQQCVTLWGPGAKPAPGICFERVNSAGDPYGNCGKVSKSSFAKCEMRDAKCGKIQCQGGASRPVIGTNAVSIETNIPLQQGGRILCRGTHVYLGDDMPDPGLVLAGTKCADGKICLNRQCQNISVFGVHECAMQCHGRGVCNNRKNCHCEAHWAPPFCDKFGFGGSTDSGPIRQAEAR
# T2: ADAM12-Cat (truncated ADAM12 protein consisting of only the pro and catalytic domains) (human, UniProt O43184-2 29-419)
# T2 sequence (looked up): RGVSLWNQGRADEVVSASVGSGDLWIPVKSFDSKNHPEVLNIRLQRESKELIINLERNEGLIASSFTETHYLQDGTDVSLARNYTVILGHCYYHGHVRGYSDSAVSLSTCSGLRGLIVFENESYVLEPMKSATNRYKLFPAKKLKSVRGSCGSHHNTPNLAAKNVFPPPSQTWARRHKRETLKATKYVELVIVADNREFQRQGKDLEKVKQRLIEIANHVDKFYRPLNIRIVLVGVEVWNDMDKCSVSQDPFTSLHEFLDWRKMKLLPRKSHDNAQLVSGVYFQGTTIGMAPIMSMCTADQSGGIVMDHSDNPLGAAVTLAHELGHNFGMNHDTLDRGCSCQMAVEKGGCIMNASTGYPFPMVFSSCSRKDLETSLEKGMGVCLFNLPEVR
# What was measured:
# [1] = biological target: T1, ADAM12-S (shorter secreted form of …); experiment: enzyme inhibition kinetics
# [2] = biological target: T2, ADAM12-Cat (truncated ADAM12 protein …); experiment: enzyme inhibition kinetics
Binder,Ki [1] [nM],Ki [2] [nM]
"TIMP-1 (tissue inhibitor of metalloproteinases 1), full-length (natural protein) not shown",223,741
"N-TIMP-3 (N-terminal domain of TIMP-3), wild-type (domain or fragment, human) CTCSPSHPQDAFCNSDIVIRAKVVGKKLVKEGPFGTLVYTIKQMKMYRGFTKMPHVQYIHTEASESLCGLKLEVNKYQYLLTGRVYDGKMYTGLCNFVERWDQLTLSQRKGLNYRYHLGCN",4.4,0.93
